Here are results for one molecule from patent US20220017630A1 (JIANGSU SIMCERE PHARMACEUTICAL, published 2022).

Assay [1] has as its target T1, human TNFR2 (Novoprotein, Catalog No. C830) (human, UniProt P20333 23-257, limits assumed).
T1 construct: construct not described; also called TNFR2 protein
T1 sequence (looked up): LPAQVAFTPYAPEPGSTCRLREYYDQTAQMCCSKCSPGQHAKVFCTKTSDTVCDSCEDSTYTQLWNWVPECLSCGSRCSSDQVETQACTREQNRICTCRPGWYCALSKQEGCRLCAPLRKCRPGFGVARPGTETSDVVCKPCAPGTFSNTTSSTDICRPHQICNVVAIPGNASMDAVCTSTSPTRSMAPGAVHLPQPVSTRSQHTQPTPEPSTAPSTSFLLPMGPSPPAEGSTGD
Briefly: blocking ELISA, TNFα-biotin on coated human TNFR2; 002# OD / antibody OD x 100. The method, then:
A microplate was pre-coated with 100 μl/well of 1 μg/ml human TNFR2 (Novoprotein, Catalog No. C830). […] After washing the plate, a Streptavidin-HRP working solution (1:10000 dilution) was added at 100 μl/well, and incubated with shaking at room temperature for 40 min. The plate was washed again, the HRP substrate TMB was added for color development, the termination solution was added to terminate the reaction, and the microplate reader was used to read the absorption value.
In general terms: In an ELISA, binding on a coated surface is turned into a signal by an enzyme label.

The target in assay [2] is T2, human TNFR2 on the cell surface (CHO-TNFR2 cells; human Treg cells) (human, UniProt P20333 23-461).
T2 construct: whole, on cells; The assay field of each row says which cells; also called TNFR2-CHO cell; TNFR2 on Treg cells
T2 sequence (looked up): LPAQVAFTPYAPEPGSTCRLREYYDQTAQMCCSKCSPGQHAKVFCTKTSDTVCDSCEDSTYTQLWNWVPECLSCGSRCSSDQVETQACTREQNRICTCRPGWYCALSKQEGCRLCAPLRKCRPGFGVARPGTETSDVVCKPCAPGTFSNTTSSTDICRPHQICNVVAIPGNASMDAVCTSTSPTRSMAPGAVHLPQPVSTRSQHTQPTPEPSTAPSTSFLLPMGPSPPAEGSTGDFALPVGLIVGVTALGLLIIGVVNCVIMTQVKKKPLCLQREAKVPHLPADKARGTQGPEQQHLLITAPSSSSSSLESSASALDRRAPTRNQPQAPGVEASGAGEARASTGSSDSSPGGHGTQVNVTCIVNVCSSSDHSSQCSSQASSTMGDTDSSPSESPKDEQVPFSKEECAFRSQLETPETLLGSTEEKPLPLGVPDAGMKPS
The experiment in a line: flow cytometry competition on CHO-TNFR2 cells: antibody first, then human TNFα-biotin, PE-streptavidin; MFI of bound TNFα-biotin [panel #395, table under the plot]. As for the experimental part:
CHO cells that stably overexpressed human TNFR2 were used for experiments. The cells were resuscitated and passaged until in good state, and the expression level of human TNFR2 on the cells was assessed by FACS. Compared to the isotype control, the assay could be carried out when the fold change of mean fluorescence intensity (MFI) was more than 100 times.
CHO-TNFR2 cells were digested, washed twice with DPBS and stained with Live/Dead (L/D) at room temperature for 20 min, and then seeded at 1×10⁵ cells/50 μl/well. […] The diluted antibodies were added 50 μl/well into wells pre-seeded with cells, and gently blown and mixed to make the final concentrations of the antibodies to 20, 6.67, 2.22, 0.74, 0.247, 0.08, 0.027 and 0 nM, respectively followed by incubation at 4° C. for 30 min. […] After washing twice with the staining buffer, 100 μl/well of PE-streptavidin was added and incubated at 4° C. for 30 min. After additional washing with the staining buffer twice, 150 μl resuspended cells was analyzed using an flow cytometry. Taking the logarithmic value of the antibody concentrations as abscissa and the corresponding MFI value as ordinate, the inhibition curve of the antibody was drawn, and the IC50 value was calculated by four parameters fitting.
(In flow cytometry, cells or beads pass a laser one at a time.)

B1: TNFR2 antibody #395 (antibody, V domains shown)
VH: EVQLQESGPVLVQPSQSLSITCTVSGFSLTSYSVHWVRQSPGKGLEWLGVIWSDGGTDYSAAFISRLSISKDNSKSQVFFKMNSLQADDTAIYYCARNDDGGDYAMDYWGQGTTVTVSS
VL: EIVLTQSPALMSASPGEKVTMTCSASSSVSYMYWYQQKPRSSPKPWIYLTSNLASGVPARFSGSGSGTSYSLTISSMEAEDAATYYCQQWSSNPLTFGAGTKLEIK
As a reminder, the IC50 is the concentration that inhibits the measured activity by half. A lower IC50 goes with greater potency in that assay. As to B1, in assay [1], the “% to 002# OD (2 nM)” value is 138% and the “% to 002# OD (20 nM)” value is 178%. The IC50 in assay [2] amounted to 0.021 µg/mL.
